# According to the RNAGym collection of RNA variant scans (doi:10.1073/pnas.2313332121):
# B1: TPR t1 (parent)
# chain: GACCAAUCUGCCCUCAGAGCUCGAGAACAUCUUCGGAUGCAGAGGAGGCAGGCUUCGGUGGCGCGAUAGCGCCAACGUCCUCAACCUCCAAUGCAUCCCACCACAUGAUGAUGCCUGAAGAGCCUUGGUUUUUUG
# Variants of: B1
# Test: polymerase ribozyme fitness, log enrichment relative to wild type (log ratio); higher = more active; in vitro selection for triplet polymerase activity
# Outline: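 Frozen incubation at −7 °C formed the core of a single, triplicate in vitro selection round applied to PCR-built, transcribed mutant libraries of each subunit of a heterodimeric triplet polymerase ribozyme. Extended constructs were gel-excised, captured with streptavidin beads and amplified by RT-PCR, and input and output libraries were Illumina-sequenced with a filter of ≥10 input reads and ≥1 read per output. Fitness is the logarithm of genotype enrichment relative to wild-type enrichment, with inverse-variance-weighted replicate averaging, and the logarithm is base 2.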
row,Variant,polymerase ribozyme fitness (log ratio)
1,C11U C40G G48U G61C C97U G120U,-4.02
2,G19U U129G,-4.04
3,C4U G60U U92A U96C,-3.48
4,U78C C94A,-0.785
5,C22A A66C G69U G93C,-5.35
6,C11A C12G C73A C104U G120A,-1.09
7,G57A U116G,-3.51
8,G113U G127U,-4.46
9,U38G C76U,-1.36
10,C53G G61C C82U G120A,0.391
11,A6G C13G G47A C56A C80U,-2.43
12,A111G U112A,-2.9
13,C11G G135U,-0.0424
14,A5U C12A C22G A27C U38G A111U,-2.81
15,C8U A50U G69U,-0.24
16,A43G G63A G77C A90G G127U G135C,-3.69
17,C31G U55C G60A U116C,-6.66
18,A18C G71A C88U G93C,-4.58
19,A18G C49U G107A,-5.11
20,G93C C114U,-1.65
21,G42U A50C A83G C97G C99U U106A G113U C124A,-7.66
22,G47U C56U U116C,-2.14
23,C40U C62G A111G,-2.32
24,C56U C114G,-2.54

row,Variant,polymerase ribozyme fitness (log ratio)
1,A29C G60U U87C,-2.47
2,A18C U54G C123G,-0.39
3,G36C A37U C82A U116G G120C,-3.26
4,C8A G60A U78A U92C,-1.3
5,C85U C123U,-1.28
6,U7G U14G C34G C72U,-5.84
7,C3U C11A G47A G110U,-3.77
8,C88A C98A C124G,-3.46
9,G93U C97U,-0.996
10,G65A C88G,-5.43
11,G17A C70A,-4.58
12,C12U G36A A66C U78C C82G A121U,-0.787
13,C56G A83U C115U,-2.71
14,C72G U125A G128A U133A,-3.47
15,A83C U112G,-1.81
16,G35C C56U,-4.82
17,G71A C85A,-2.44
18,G77A U132C,-0.208
19,G42U A50C C62U A84G C114G,-4.07
20,G44C C73U C86U U96G U129C,-2.46
21,C22G C40A,-4.68
22,A41C A90G,-0.105
23,C8G C13G A37C G52C C62G C86U,-4.08
24,U9G U32A C62G U92G G117C,-5.56

row,Variant,polymerase ribozyme fitness (log ratio)
1,A29G A37C C102A,-4.8
2,C40U A74G,-0.128
3,G42A U54C,-1.78
4,A26G C70G G113A,-5.88
5,C4U C20A A111G,-4.75
6,A2U U116A,-5.18
7,C8A C13A C49G C124G,1.1
8,A5C C22A C88G,-5.51
9,G63U C72U C82G G113C,-4.22
10,G19A U78G C80U,-3.52
11,G44A G117U,-3.1
12,C62A A105U,-3.07
13,C89G C115A G120C,-1.16
14,A5C G113U,-3.73
15,C49U G93A C97U U116C,-3.84
16,C12A A41G,-0.758
17,C8A C86U G110A G120U,0.0948
18,U21C C101U,-0.578
19,C12U C88A A95U C104A,-3.44
20,C86A G117U,-4.28
21,G48A C80G A95C U109G,-7.79
22,A5U U9G G48A U78A,-0.963
23,C12U C70A,-0.649
24,C28G G93U A119G U129C,-4.2

row,Variant,polymerase ribozyme fitness (log ratio)
1,C22A C40U C49A C72U C123G,-5.79
2,A108G A111C,-1.58
3,U7C G44A C79U C86U,-1.45
4,C15G A37U G48U G77U G122A,-4.17
5,C15U C97G A121C,-4.09
6,C72A U81G G120U,-0.653
7,A43U A46G C53G U87C C115U,-2.37
8,C15A G17A C73G U112A,-4.93
9,G42A G52C C62A,-4.83
10,G60C A66U G113A U126C,-4.03
11,G36U A43U,-2.65
12,C86G U92C,-2.6
13,C20U G45A G93U,-4.76
14,G39A G61C A118G G122A,-3.03
15,G52U C72A C104U A111G G113A,-2.25
16,C13G U32C A37G C49U,-1.77
17,C11U G23A G61A G113U,-6.08
18,C62U A105U,-2.19
19,A6G U9A C34U,-3.96
20,G47C C62U,-1.21
21,A6G C12U C22U A50G C56A,-4.54
22,C20U G61A C98A,-5.48
23,C13A U21C A50U C98U U106A C115U,-6.68
24,C80A C97A G107U C115U,-7.92

row,Variant,polymerase ribozyme fitness (log ratio)
1,A50G C123U,1.02
2,A46G C76U C94G G120C,-1.42
3,G93U G117C,-4.08
4,G110C C123G,-4.09
5,C12G A43U G61A A84U,-1.52
6,G19C A24U G48U G52U C64G U109A G110U,-7.39
7,C12U G36C G45A,-0.823
8,A29U G45U,-3.1
9,A37U G52C G71A C115U U132C,-3.24
10,G19C G42A G120U,-2.23
11,A27C G48U,-4.11
12,A29G C53G U87C G113C,-3.02
13,G39C A91U,-2.41
14,G45U U116A,-4.04
15,C114U G120U,-2.8
16,C13G C56G,-2.09
17,U9A G39U G48A U109A,-6.15
18,A26U C49G,-3.57
19,G60A G71A A90U C94A G110C,-6.47
20,A2U A100U,-3.18
21,G10C G36U A50C U78G C86A,-4.45
22,G69U C85G,-0.537
23,U9C C12G C13G A50C C70U C76A U78A C85U,-2.55
24,A43U U92A U106A,-2.69

row,Variant,polymerase ribozyme fitness (log ratio)
1,U9C G60U,0.0949
2,A84U C94G,-1.24
3,A46G A83G,-0.884
4,C28U C72U U112A G122A U129A,-4.79
5,A2G A6C C56U,0.182
6,G44A G61C U78C C79G U112G U133G,-3.14
7,G61U U112A,1.27
8,C20U C40A G69C C94G G120U,-5.2
9,C11U A24G G45U A91G,-5.06
10,C20A U21A U54C C94U U109G,-5.29
11,C101A G117C A121U,-4.18
12,A6U G39A C88A,-1.23
13,C4A G52C C114U,-6.04
14,C3G C62U G93U C98U G128C,-2.79
15,G48C C49A G128A,-3.09
16,A24G U78C,-1.32
17,C12G G69C C82U C98U A119G,-0.598
18,A27G G69C,-2.33
19,G36C C53U U55G G113C G120C,-2.92
20,C3U A68G,-3.05
21,A5U A46C C73A C98U,-1.57
22,C28G A29C A95G C98U G107A U112A,-5.27
23,C40A C62U A91U G93C C104U G113A,-2.62
24,G39A G44U C86A A108U C115U G128U U130G,-6.8

row,Variant,polymerase ribozyme fitness (log ratio)
1,G36U A50G C114A U132A,-2.9
2,C4U A43U G69C,-4.04
3,A95U U109G G120C,-5.29
4,A27G A74G C115A,-4.15
5,G58A U109A,-4.85
6,A26U C34A G63C U112G G128C,-7.83
7,A5U G63U U133A,-2.34
8,C12G G42A G57C C72U U125C,-4.98
9,C49U G61C,-1.88
10,U55G U87A C98G U109G A121C,-6.47
11,A27G C28U G47U G58C,-3.68
12,A29G C123U,-0.36
13,A2C C86U A90C,-4.21
14,C8G G61A U109A U132C,-4.05
15,C49A U59A A74U C114U,-2.86
16,G45U G93A,-1.79
17,U30G G69C A108C,-0.59
18,C82A C85A G120U,-0.479
19,C70A C86U,-1.81
20,G51A G60C U92C U130A,-6.22
21,C11G C28G C86A C123U,-1.94
22,A18G C20U A95C,-1.56
23,G17C U87A,-3.72
